# Where a chain is given by its changes, count along the chain named.
# Target: HLA DQ molecule DQB1*0202 (human)
# Test: inhibition of radiolabeled peptide binding to purified HLA class II
row,Binder,IC50
1,"DAFIAALTEALRVIA [Pha a 5 peptide, position 121, DAFIAALTEALRVIA (Peptide ID 3324.1432)]",2.04 µM
2,"LIEKINAGFKAAVAA [Lol p 5 1 peptide, position 71, LIEKINAGFKAAVAA (Peptide ID 3324.1175)]",50 µM
3,"NVFDEVIPTAFTVGK [Lol p 3 peptide, position 76, NVFDEVIPTAFTVGK (Peptide ID 3324.1141), listing 1 of 2 here]",1.7 µM

# Target: HLA DQ molecule DQB1*0503 (human)
# Test: as above
row,Binder,IC50
1,"DAFIAALTEALRVIA [Pha a 5 peptide, position 121, DAFIAALTEALRVIA (Peptide ID 3324.1432)]",50 µM
2,"LIEKINAGFKAAVAA [Lol p 5 1 peptide, position 71, LIEKINAGFKAAVAA (Peptide ID 3324.1175)]",0.147 µM
3,"NVFDEVIPTAFTVGK [Lol p 3 peptide, position 76, NVFDEVIPTAFTVGK (Peptide ID 3324.1141), listing 1 of 2 here]",2.9 µM

# Target: HLA DQ molecule DQB1*0503 (human)
# Test: as above
# Remark: another data set of the same source
row,Binder,IC50
1,"QIDAFIANAGATADS [Cla h 8 (101-115) peptide QIDAFIANAGATADS, Peptide ID 3324.0601]",0.084 µM
2,"GCIHMARSLANEWRD [Cla h 8 (181-195) peptide GCIHMARSLANEWRD, Peptide ID 3324.0602]",0.649 µM
3,"KELKGAYVYFASDAS [Cla h 8 (236-250) peptide KELKGAYVYFASDAS, Peptide ID 3324.0598]",0.518 µM
4,"GTGSLVITASMSGHI [Cla h 8 (151-165) peptide GTGSLVITASMSGHI, Peptide ID 3324.0603]",13.8 µM
5,"GGRLAFQEFMIVPSG [Cla h 6 (161-175) peptide GGRLAFQEFMIVPSG, Peptide ID 3324.0588]",2.44 µM
6,"IFYDVFFAVANGNEL [Fel d 1 2 (26-40) peptide IFYDVFFAVANGNEL, Peptide ID 3324.1052]",8.13 µM

# Target: HLA DQ molecule DQB1*0502 (human)
# Test: as above
row,Binder,IC50
1,"QIDAFIANAGATADS [Cla h 8 (101-115) peptide QIDAFIANAGATADS, Peptide ID 3324.0601]",0.819 µM
2,"AFLLLGLAGNSSPSA [Cla h 5 (6-20) peptide, Peptide ID 3324.0576]",0.718 µM
3,"GCIHMARSLANEWRD [Cla h 8 (181-195) peptide GCIHMARSLANEWRD, Peptide ID 3324.0602]",0.673 µM
4,"KELKGAYVYFASDAS [Cla h 8 (236-250) peptide KELKGAYVYFASDAS, Peptide ID 3324.0598]",4.67 µM
5,"GGRLAFQEFMIVPSG [Cla h 6 (161-175) peptide GGRLAFQEFMIVPSG, Peptide ID 3324.0588]",4.95 µM
6,"IFYDVFFAVANGNEL [Fel d 1 2 (26-40) peptide IFYDVFFAVANGNEL, Peptide ID 3324.1052]",6.65 µM

# Target: T1, HLA-DP DPB1*0201 (human)
# T1 chain 1: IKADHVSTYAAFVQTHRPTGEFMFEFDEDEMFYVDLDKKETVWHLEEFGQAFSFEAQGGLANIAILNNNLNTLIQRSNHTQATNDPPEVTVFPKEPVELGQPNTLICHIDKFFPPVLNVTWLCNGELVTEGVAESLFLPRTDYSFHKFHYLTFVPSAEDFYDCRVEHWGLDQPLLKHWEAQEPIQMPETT
# T1 chain 2: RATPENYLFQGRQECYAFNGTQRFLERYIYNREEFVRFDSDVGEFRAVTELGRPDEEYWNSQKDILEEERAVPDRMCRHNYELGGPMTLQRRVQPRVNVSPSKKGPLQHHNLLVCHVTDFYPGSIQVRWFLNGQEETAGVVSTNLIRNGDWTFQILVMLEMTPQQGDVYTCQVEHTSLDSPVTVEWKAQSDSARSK
# Test: inhibition of radiolabeled peptide binding to purified HLA-DP
row,Binder,IC50
1,GGSILKISNKFHTKG [Aln g 1 (111-125) peptide 3324.0007],0.843 µM
2,IEFRFYKEITNVFRG [Der p 4 (251-265) peptide 3324.0976],0.035 µM
3,LEKISNEIKIVATPD [Bet v 1 (96-110) peptide 3324.0353],7.57 µM
4,AFMLAWNYGVPRVMS [Der p 4 (321-335) peptide 3324.0977],0.185 µM
5,EIYNMVKFRMIAGQE [Der p 4 (386-400) peptide 3324.0978],0.0053 µM
6,YVGHDEFDAFVAYHI [Der p 4 (476-490) peptide 3324.0975],0.177 µM
7,PSVIPAARLFKAFIL [Aln g 1 (11-25) peptide 3324.0004],0.063 µM
8,SRGNRAFIAINLQKN [Der p 4 (416-430) peptide 3324.0974],0.0072 µM
9,EHRWREIYNMVKFRM [Der p 4 (381-395) peptide 3324.0986],0.109 µM

# Target: T2, HLA-DP DPB1*0401 (human)
# T2 chain 1: T1 chain 1
# T2 chain 2: T1 chain 2 with V36A, D55A, E56A, E69K
# Test: as above
row,Binder,IC50
1,GGSILKISNKFHTKG [Aln g 1 (111-125) peptide 3324.0007],18.5 µM
2,LEKISNEIKIVATPD [Bet v 1 (96-110) peptide 3324.0353],6.82 µM
3,AFMLAWNYGVPRVMS [Der p 4 (321-335) peptide 3324.0977],5.16 µM
4,EIYNMVKFRMIAGQE [Der p 4 (386-400) peptide 3324.0978],0.122 µM
5,FSGVAATESAYLAYR [Der f 1 (136-150) peptide 3324.0666],1.44 µM
6,YVGHDEFDAFVAYHI [Der p 4 (476-490) peptide 3324.0975],0.273 µM
7,PSVIPAARLFKAFIL [Aln g 1 (11-25) peptide 3324.0004],7.28 µM
8,GGSILKISNKYHTKG [Bet v 1 (111-125) peptide 3324.0352],10.5 µM
9,FDAFVAYHIGARIVS [Der p 4 (482-496) peptide 3324.0971],0.071 µM
10,RTLNKIVYIKPAKNI [Bet v 6 (206-220) peptide 3324.0387],0.041 µM
11,EHRWREIYNMVKFRM [Der p 4 (381-395) peptide 3324.0986],0.549 µM

# Target: HLA-DQ molecule DQB1*0602 (human)
# Test: inhibition of radiolabeled peptide binding to purified HLA
row,Binder,IC50
1,IEFRFYKEITNVFRG [Der p 4 peptide 3324.0976 (position 251)],0.318 µM
2,AFMLAWNYGVPRVMS [Der p 4 peptide 3324.0977 (position 321)],0.762 µM
3,FDAFVAYHIGARIVS [Der p 4 peptide 3324.0971 (position 482)],0.054 µM
4,RGIEYIQHNGVVQES [Der p 1 peptide 3324.0831 (position 176)],0.859 µM
5,SRGNRAFIAINLQKN [Der p 4 peptide 3324.0974 (position 416)],0.098 µM
6,RTLNKIVYIKPAKNI [Bet v 6 peptide 3324.0387 (position 206)],0.058 µM
7,GGSILKISNKYHTKG [Bet v 1 peptide 3324.0352 (position 111)],6.06 µM
8,LEKISNEIKIVATPD [Bet v 1 peptide 3324.0353 (position 96)],0.019 µM
9,IVLNHMTGAQSGKGT [Der p 4 peptide 3324.0987 (position 96)],0.065 µM

# Target: HLA-DQ molecule DQB1*0503 (human)
# Test: as above
row,Binder,IC50
1,IEFRFYKEITNVFRG [Der p 4 peptide 3324.0976 (position 251)],4.37 µM
2,AFMLAWNYGVPRVMS [Der p 4 peptide 3324.0977 (position 321)],0.339 µM
3,EHRWREIYNMVKFRM [Der p 4 peptide 3324.0986 (position 381)],4.24 µM
4,REALAQTHSAIAVII [Der p 1 peptide 3324.0840 (position 226)],32.1 µM
5,YQIAFSRGNRAFIAI [Der p 4 peptide 3324.0980 (position 411)],1.41 µM
6,FDAFVAYHIGARIVS [Der p 4 peptide 3324.0971 (position 482)],1.08 µM
7,SRGNRAFIAINLQKN [Der p 4 peptide 3324.0974 (position 416)],0.084 µM
8,PSVIPAARLFKAFIL [Aln g 1 peptide 3324.0004 (position 11)],1.45 µM
9,RTLNKIVYIKPAKNI [Bet v 6 peptide 3324.0387 (position 206)],3.46 µM
10,LEKISNEIKIVATPD [Bet v 1 peptide 3324.0353 (position 96)],8.89 µM

# Target: HLA-DQ molecule DQB1*0202 (human)
# Test: as above
row,Binder,IC50
1,IEFRFYKEITNVFRG [Der p 4 peptide 3324.0976 (position 251)],6.2 µM
2,YVGHDEFDAFVAYHI [Der p 4 peptide 3324.0975 (position 476)],8.14 µM
3,AFMLAWNYGVPRVMS [Der p 4 peptide 3324.0977 (position 321)],8.36 µM
4,REALAQTHSAIAVII [Der p 1 peptide 3324.0840 (position 226)],0.629 µM
5,YQIAFSRGNRAFIAI [Der p 4 peptide 3324.0980 (position 411)],8.72 µM
6,FDAFVAYHIGARIVS [Der p 4 peptide 3324.0971 (position 482)],4.75 µM
7,SGVAATESAYLAYRN [Der p 1 peptide 3324.0829 (position 136)],0.871 µM
8,SRGNRAFIAINLQKN [Der p 4 peptide 3324.0974 (position 416)],7.39 µM
9,PSVIPAARLFKAFIL [Aln g 1 peptide 3324.0004 (position 11)],11.2 µM
10,RTLNKIVYIKPAKNI [Bet v 6 peptide 3324.0387 (position 206)],12.5 µM
11,GGSILKISNKFHTKG [Aln g 1 peptide 3324.0007 (position 111)],50 µM
12,LEKISNEIKIVATPD [Bet v 1 peptide 3324.0353 (position 96)],8.67 µM

# Target: HLA-DQ molecule DQB1*0502 (human)
# Test: as above
row,Binder,IC50
1,IEFRFYKEITNVFRG [Der p 4 peptide 3324.0976 (position 251)],5.52 µM
2,YVGHDEFDAFVAYHI [Der p 4 peptide 3324.0975 (position 476)],5.04 µM
3,SCWAFSGVAATESAY [Der p 1 peptide 3324.0832 (position 131)],4.4 µM
4,AFMLAWNYGVPRVMS [Der p 4 peptide 3324.0977 (position 321)],0.992 µM
5,EHRWREIYNMVKFRM [Der p 4 peptide 3324.0986 (position 381)],8.94 µM
6,SRGNRAFIAINLQKN [Der p 4 peptide 3324.0974 (position 416)],0.546 µM
7,LEKISNEIKIVATPD [Bet v 1 peptide 3324.0353 (position 96)],5.09 µM

# Target: HLA-DQ molecule DQB1*0202 (human)
# Test: inhibition of radiolabeled peptide binding to purified HLA-DQ
row,Binder,IC50
1,KAFVLDSDNLIPKVV [Que a 1 (21-35) peptide KAFVLDSDNLIPKVV],0.194 µM

# Target: HLA-DQ molecule DQB1*0503 (human)
# Test: as above
row,Binder,IC50
1,KAFVLDSDNLIPKVV [Que a 1 (21-35) peptide KAFVLDSDNLIPKVV],2.64 µM
2,ASVIPPARLFKAFVL [Que a 1 (11-25) peptide ASVIPPARLFKAFVL],1.95 µM
3,IIFSQNMNIKLKMPL [Cup s 1 (91-105) peptide IIFSQNMNIKLKMPL],36 µM
4,NLALSIKYNKEGDSM [Dac g 2 (16-30) peptide NLALSIKYNKEGDSM],8.96 µM
5,IVYIKPAKNIYSFNE [Bet v 6 (211-225) peptide IVYIKPAKNIYSFNE],0.65 µM
6,KALWIIFSQNMNIKL [Cup a 1 (66-80) peptide KALWIIFSQNMNIKL],29 µM
7,IFSQNMNIKLQMPLY [Cup a 1 (71-85) peptide IFSQNMNIKLQMPLY],4.9 µM

# Target: HLA-DQ molecule DQB1*0502 (human)
# Test: as above
row,Binder,IC50
1,DIYNYMEPYVSKVDP [Dac g 4 (1-15) peptide DIYNYMEPYVSKVDP],2.02 µM
2,IVYIKPAKNIYSFNE [Bet v 6 (211-225) peptide IVYIKPAKNIYSFNE],5.83 µM
3,KALWIIFSQNMNIKL [Cup a 1 (66-80) peptide KALWIIFSQNMNIKL],50 µM

# Target: HLA-DQ molecule DQB1*0602 (human)
# Test: as above
row,Binder,IC50
1,IIFSQNMNIKLKMPL [Cup s 1 (91-105) peptide IIFSQNMNIKLKMPL],1.86 µM
2,NLALSIKYNKEGDSM [Dac g 2 (16-30) peptide NLALSIKYNKEGDSM],0.258 µM
3,IVYIKPAKNIYSFNE [Bet v 6 (211-225) peptide IVYIKPAKNIYSFNE],0.019 µM
4,IFSQNMNIKLQMPLY [Cup a 1 (71-85) peptide IFSQNMNIKLQMPLY],0.262 µM

# Target: HLA-DP molecule DPB1*2001 (human)
# Test: inhibition of radiolabeled peptide binding to purified HLA-DP
row,Binder,IC50
1,"QKLMEDINVGFKAAV [Poa p 5 peptide, position 51, QKLMEDINVGFKAAV (Peptide ID 3324.1580)]",2.18 µM
2,"NVFDEVIPTAFTVGK [Lol p 3 peptide, position 76, NVFDEVIPTAFTVGK (Peptide ID 3324.1141), listing 2 of 2 here]",13.2 µM
3,"SDAKTLVLNIKYTRP [Lol p 3 peptide, position 11, SDAKTLVLNIKYTRP (Peptide ID 3324.1142)]",24 µM
